Results as given in US20250353888A1.

Assays:
[1] = molecular target: FGF receptor 2b (FGFR2b) naturally expressed on 4MBr-5 rhesus monkey bronchial epithelial cells (rhesus monkey); assay: cell-based or functional assay
[2] = molecular target: FGFR2 receptor endogenously expressed on mammary adenocarcinoma MCF7 cells (UniProt P21802); assay: cell-based or functional assay
Sequence of FGFR2 receptor endogenously expressed on mammary adenocarcinoma MCF7 cells (P21802 22-821): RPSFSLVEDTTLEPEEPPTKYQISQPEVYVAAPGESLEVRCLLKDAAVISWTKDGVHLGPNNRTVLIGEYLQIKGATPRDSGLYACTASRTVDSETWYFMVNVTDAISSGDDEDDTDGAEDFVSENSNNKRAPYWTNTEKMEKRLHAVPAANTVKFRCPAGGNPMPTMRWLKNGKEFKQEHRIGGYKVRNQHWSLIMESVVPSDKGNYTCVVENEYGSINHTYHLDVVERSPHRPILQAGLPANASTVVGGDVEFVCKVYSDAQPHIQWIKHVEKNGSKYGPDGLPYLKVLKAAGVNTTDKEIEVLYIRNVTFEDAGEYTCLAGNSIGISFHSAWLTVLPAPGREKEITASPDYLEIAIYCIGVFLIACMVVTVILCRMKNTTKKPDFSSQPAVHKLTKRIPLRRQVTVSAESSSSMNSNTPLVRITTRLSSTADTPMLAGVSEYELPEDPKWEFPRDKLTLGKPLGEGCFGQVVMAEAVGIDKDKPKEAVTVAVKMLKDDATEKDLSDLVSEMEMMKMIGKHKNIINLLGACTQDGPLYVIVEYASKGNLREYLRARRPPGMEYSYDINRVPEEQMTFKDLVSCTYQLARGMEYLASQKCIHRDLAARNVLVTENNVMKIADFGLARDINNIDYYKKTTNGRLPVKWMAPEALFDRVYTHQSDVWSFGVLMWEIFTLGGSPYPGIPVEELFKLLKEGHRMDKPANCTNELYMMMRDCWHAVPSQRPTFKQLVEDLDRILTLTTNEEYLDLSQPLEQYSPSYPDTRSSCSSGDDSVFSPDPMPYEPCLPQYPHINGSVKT

Substance | ED50, proliferation of lung epithelial 4MBr-5 cells (resazurin) [1] | ED50, proliferation of 4MBr-5 cells (resazurin) [1] | ED50 (ng/mL) determined using 4MBr-5 cells; no preincubation (control) [1] | ED50 (ng/mL) determined using 4MBr-5 cells; protein preincubated at 37° C. for 1 day [1] | ED50 (ng/mL) determined using 4MBr-5 cells; protein preincubated at 37° C. for 3 days [1] | ED50 (ng/mL) determined using 4MBr-5 cells; protein preincubated at 37° C. for 7 days [1] | pKrox24 (MapERK)-DsRed reporter induction in MCF7 cells, 100 ng/mL, 24 hr (times, against FGF10-wt) [2]
FGF10 single-point mutant L152F (ligand) | 1.4 ng/mL |  |  |  |  |  | 
FGF10-STAB (4-point mutant of FGF10: V123I+L152F+Q175E+N181D) (ligand) |  | 0.21 ng/mL | 0.37 ng/mL | 1 ng/mL | 0.26 ng/mL | 11.1 ng/mL | 2.5
FGF10-Fp+L152F (single point variant of FGF10-Fp) (ligand) |  | 6.1 ng/mL |  |  |  |  | 

Further lines, results first:

ED50, proliferation of lung epithelial 4MBr-5 cells (resazurin) [1] | ED50, proliferation of 4MBr-5 cells (resazurin) [1] | ED50 (ng/mL) determined using 4MBr-5 cells; no preincubation (control) [1] | ED50 (ng/mL) determined using 4MBr-5 cells; protein preincubated at 37° C. for 1 day [1] | ED50 (ng/mL) determined using 4MBr-5 cells; protein preincubated at 37° C. for 3 days [1] | ED50 (ng/mL) determined using 4MBr-5 cells; protein preincubated at 37° C. for 7 days [1] | pKrox24 (MapERK)-DsRed reporter induction in MCF7 cells, 100 ng/mL, 24 hr (times, against FGF10-wt) [2] | Substance
 | 1.9 ng/mL |  |  |  |  |  | FGF10^69-208+L152F (ligand)
 | 12.7 ng/mL |  |  |  |  |  | FGF10 from Falco peregrinus (FGF10-Fp) (ligand)
0.8 ng/mL |  | 0.95 ng/mL | 12.5 ng/mL | 21.1 ng/mL | 34.8 ng/mL |  | FGF10-wt (recombinant mature human FGF10, Leu40-Ser208, with N-terminal His-tag and thrombin cleavage site) (ligand)
